B1: V279F: PAF-AH with phenylalanine for valine at position 279, mutation of PAF-AH deficient individuals, expressed in E. coli (protein)
chain: MVPPKLHVLFCLCGCLAVVYPFDWQYINPVAHMKSSAWVNKIQVLMAAASFGQTKIPRGNGPYSVGCTDLMFDHTNKGTFLRLYYPSQDNDRLDTLWIPNKEYFWGLSKFLGTHWLMGNILRLLFGSMTTPANWNSPLRPGEKYPLVVFSHGLGAFRTLYSAIGIDLASHGFIVAAVEHRDRSASATYYFKDQSAAEIGDKSWLYLRTLKQEEETHIRNEQVRQRAKECSQALSLILDIDHGKPVKNALDLKFDMEQLKDSIDREKIAVIGHSFGGATFIQTLSEDQRFRCGIALDAWMFPLGDEVYSRIPQPLFFINSEYFQYPANIIKMKKCYSPDKERKMITIRGSVHQNFADFTFATGKIIGHMLKLKGDIDSNVAIDLSNKASLAFLQKHLGLHKDFDQWDCLIEGDDENLIPGTNINTTNQHIMLQNSSGIEKYN
B2: C67S: PAF-AH cysteine to serine mutant expressed in E. coli (protein)
chain: MVPPKLHVLFCLCGCLAVVYPFDWQYINPVAHMKSSAWVNKIQVLMAAASFGQTKIPRGNGPYSVGSTDLMFDHTNKGTFLRLYYPSQDNDRLDTLWIPNKEYFWGLSKFLGTHWLMGNILRLLFGSMTTPANWNSPLRPGEKYPLVVFSHGLGAFRTLYSAIGIDLASHGFIVAAVEHRDRSASATYYFKDQSAAEIGDKSWLYLRTLKQEEETHIRNEQVRQRAKECSQALSLILDIDHGKPVKNALDLKFDMEQLKDSIDREKIAVIGHSFGGATVIQTLSEDQRFRCGIALDAWMFPLGDEVYSRIPQPLFFINSEYFQYPANIIKMKKCYSPDKERKMITIRGSVHQNFADFTFATGKIIGHMLKLKGDIDSNVAIDLSNKASLAFLQKHLGLHKDFDQWDCLIEGDDENLIPGTNINTTNQHIMLQNSSGIEKYN
B3: H395A, H399A: PAF-AH double amino acid substitution product expressed in E. coli (protein)
chain: MVPPKLHVLFCLCGCLAVVYPFDWQYINPVAHMKSSAWVNKIQVLMAAASFGQTKIPRGNGPYSVGCTDLMFDHTNKGTFLRLYYPSQDNDRLDTLWIPNKEYFWGLSKFLGTHWLMGNILRLLFGSMTTPANWNSPLRPGEKYPLVVFSHGLGAFRTLYSAIGIDLASHGFIVAAVEHRDRSASATYYFKDQSAAEIGDKSWLYLRTLKQEEETHIRNEQVRQRAKECSQALSLILDIDHGKPVKNALDLKFDMEQLKDSIDREKIAVIGHSFGGATVIQTLSEDQRFRCGIALDAWMFPLGDEVYSRIPQPLFFINSEYFQYPANIIKMKKCYSPDKERKMITIRGSVHQNFADFTFATGKIIGHMLKLKGDIDSNVAIDLSNKASLAFLQKALGLAKDFDQWDCLIEGDDENLIPGTNINTTNQHIMLQNSSGIEKYN
B4: D338A: PAF-AH amino acid substitution product expressed in E. coli (protein)
chain: MVPPKLHVLFCLCGCLAVVYPFDWQYINPVAHMKSSAWVNKIQVLMAAASFGQTKIPRGNGPYSVGCTDLMFDHTNKGTFLRLYYPSQDNDRLDTLWIPNKEYFWGLSKFLGTHWLMGNILRLLFGSMTTPANWNSPLRPGEKYPLVVFSHGLGAFRTLYSAIGIDLASHGFIVAAVEHRDRSASATYYFKDQSAAEIGDKSWLYLRTLKQEEETHIRNEQVRQRAKECSQALSLILDIDHGKPVKNALDLKFDMEQLKDSIDREKIAVIGHSFGGATVIQTLSEDQRFRCGIALDAWMFPLGDEVYSRIPQPLFFINSEYFQYPANIIKMKKCYSPAKERKMITIRGSVHQNFADFTFATGKIIGHMLKLKGDIDSNVAIDLSNKASLAFLQKHLGLHKDFDQWDCLIEGDDENLIPGTNINTTNQHIMLQNSSGIEKYN
B5: C229S: PAF-AH cysteine to serine mutant expressed in E. coli (protein)
chain: MVPPKLHVLFCLCGCLAVVYPFDWQYINPVAHMKSSAWVNKIQVLMAAASFGQTKIPRGNGPYSVGCTDLMFDHTNKGTFLRLYYPSQDNDRLDTLWIPNKEYFWGLSKFLGTHWLMGNILRLLFGSMTTPANWNSPLRPGEKYPLVVFSHGLGAFRTLYSAIGIDLASHGFIVAAVEHRDRSASATYYFKDQSAAEIGDKSWLYLRTLKQEEETHIRNEQVRQRAKESSQALSLILDIDHGKPVKNALDLKFDMEQLKDSIDREKIAVIGHSFGGATVIQTLSEDQRFRCGIALDAWMFPLGDEVYSRIPQPLFFINSEYFQYPANIIKMKKCYSPDKERKMITIRGSVHQNFADFTFATGKIIGHMLKLKGDIDSNVAIDLSNKASLAFLQKHLGLHKDFDQWDCLIEGDDENLIPGTNINTTNQHIMLQNSSGIEKYN
B6: D304A: PAF-AH amino acid substitution product expressed in E. coli (protein)
chain: MVPPKLHVLFCLCGCLAVVYPFDWQYINPVAHMKSSAWVNKIQVLMAAASFGQTKIPRGNGPYSVGCTDLMFDHTNKGTFLRLYYPSQDNDRLDTLWIPNKEYFWGLSKFLGTHWLMGNILRLLFGSMTTPANWNSPLRPGEKYPLVVFSHGLGAFRTLYSAIGIDLASHGFIVAAVEHRDRSASATYYFKDQSAAEIGDKSWLYLRTLKQEEETHIRNEQVRQRAKECSQALSLILDIDHGKPVKNALDLKFDMEQLKDSIDREKIAVIGHSFGGATVIQTLSEDQRFRCGIALDAWMFPLGAEVYSRIPQPLFFINSEYFQYPANIIKMKKCYSPDKERKMITIRGSVHQNFADFTFATGKIIGHMLKLKGDIDSNVAIDLSNKASLAFLQKHLGLHKDFDQWDCLIEGDDENLIPGTNINTTNQHIMLQNSSGIEKYN
B7: H351A: PAF-AH amino acid substitution product expressed in E. coli (protein)
chain: MVPPKLHVLFCLCGCLAVVYPFDWQYINPVAHMKSSAWVNKIQVLMAAASFGQTKIPRGNGPYSVGCTDLMFDHTNKGTFLRLYYPSQDNDRLDTLWIPNKEYFWGLSKFLGTHWLMGNILRLLFGSMTTPANWNSPLRPGEKYPLVVFSHGLGAFRTLYSAIGIDLASHGFIVAAVEHRDRSASATYYFKDQSAAEIGDKSWLYLRTLKQEEETHIRNEQVRQRAKECSQALSLILDIDHGKPVKNALDLKFDMEQLKDSIDREKIAVIGHSFGGATVIQTLSEDQRFRCGIALDAWMFPLGDEVYSRIPQPLFFINSEYFQYPANIIKMKKCYSPDKERKMITIRGSVAQNFADFTFATGKIIGHMLKLKGDIDSNVAIDLSNKASLAFLQKHLGLHKDFDQWDCLIEGDDENLIPGTNINTTNQHIMLQNSSGIEKYN
B8: C334S: PAF-AH cysteine to serine mutant expressed in E. coli (protein)
chain: MVPPKLHVLFCLCGCLAVVYPFDWQYINPVAHMKSSAWVNKIQVLMAAASFGQTKIPRGNGPYSVGCTDLMFDHTNKGTFLRLYYPSQDNDRLDTLWIPNKEYFWGLSKFLGTHWLMGNILRLLFGSMTTPANWNSPLRPGEKYPLVVFSHGLGAFRTLYSAIGIDLASHGFIVAAVEHRDRSASATYYFKDQSAAEIGDKSWLYLRTLKQEEETHIRNEQVRQRAKECSQALSLILDIDHGKPVKNALDLKFDMEQLKDSIDREKIAVIGHSFGGATVIQTLSEDQRFRCGIALDAWMFPLGDEVYSRIPQPLFFINSEYFQYPANIIKMKKSYSPDKERKMITIRGSVHQNFADFTFATGKIIGHMLKLKGDIDSNVAIDLSNKASLAFLQKHLGLHKDFDQWDCLIEGDDENLIPGTNINTTNQHIMLQNSSGIEKYN
B9: C291S: PAF-AH cysteine to serine mutant expressed in E. coli (protein)
chain: MVPPKLHVLFCLCGCLAVVYPFDWQYINPVAHMKSSAWVNKIQVLMAAASFGQTKIPRGNGPYSVGCTDLMFDHTNKGTFLRLYYPSQDNDRLDTLWIPNKEYFWGLSKFLGTHWLMGNILRLLFGSMTTPANWNSPLRPGEKYPLVVFSHGLGAFRTLYSAIGIDLASHGFIVAAVEHRDRSASATYYFKDQSAAEIGDKSWLYLRTLKQEEETHIRNEQVRQRAKECSQALSLILDIDHGKPVKNALDLKFDMEQLKDSIDREKIAVIGHSFGGATVIQTLSEDQRFRSGIALDAWMFPLGDEVYSRIPQPLFFINSEYFQYPANIIKMKKCYSPDKERKMITIRGSVHQNFADFTFATGKIIGHMLKLKGDIDSNVAIDLSNKASLAFLQKHLGLHKDFDQWDCLIEGDDENLIPGTNINTTNQHIMLQNSSGIEKYN

The first experiment in a line: PAF-AH activity of amino acid substitution products expressed in E. coli. The experiment is classed as biochemical. To be noted: control construct lacking the mutation fully active. An excerpt: By site-directed mutagenesis and PCR, individual codons of the human PAF-AH coding sequence were modified to encode alanine residues and were expressed in E. coli. […] The distances between active site residues is similar for PAF-AH (Ser to Asp, 23 amino acids; Ser to His, 78 amino acids) and other lipases. […] Cysteines are often critical for the functional integrity of proteins because of their capacity to form disulfide bonds. The plasma PAF-AH enzyme contains five cysteines. To determine whether any of the five is critical for enzyme actvity, each cysteine was mutated individually to a serine and the resulting mutants were expressed in E. coli. As shown below in Table 8, a significant but not total loss of PAF-AH activity resulted from the conversion of either Cys229, r Cys291 to serine. Therefore, these cysteines appear to be necessary for full PAF-AH activity. Other point mutations had little or no effect on PAF-AH catalytic activity. In Table 8, “++++” represent wild type PAF-AH activity of about 40-60 U/ml/OD600, “+++” represents about 20-40 U/ml/OD600 activity, “++” represents about 10-20 U/ml/OD600 activity, “+” represents 1-10 U/ml/OD600 activity, and “−” indicates <1 U/ml/OD600 activity.
To test whether this mutation crippled the enzyme, an E. coli expression construct containing the mutation was generated by methods similar to that described in Example 10. […] This amino acid substitution presumably results in a structural modification which causes the observed deficiency of activity and lack of immunoreactivity with the PAF-AH antibodies of the invention.
On to B1, for which the “PAF-AH activity of E. coli expression construct containing the mutation” value is “no PAF-AH activity”.

The same experiment, now with this note: point mutants expressed in E. coli.
Regarding B2, the PAF-AH activity entry was “+++ (“+++” represents about 20-40 U/ml/OD600 activity)”.
Turning to B3, the PAF-AH activity result was “++++ (“++++” represent wild type PAF-AH activity of about 40-60 U/ml/OD600)”.
B4: the PAF-AH activity result is “++++ (“++++” represent wild type PAF-AH activity of about 40-60 U/ml/OD600)”.
Same read-out and setting: then B5, with “+ (“+” represents 1-10 U/ml/OD600 activity)”; and B6, with “++++ (“++++” represent wild type PAF-AH activity of about 40-60 U/ml/OD600)”.
On to B7, for which the PAF-AH activity entry was “− (“−” indicates <1 U/ml/OD600 activity)”.
Turning to B8, the PAF-AH activity result is reported as “++++ (“++++” represent wild type PAF-AH activity of about 40-60 U/ml/OD600)”.
As to B9, the PAF-AH activity result was “+ (“+” represents 1-10 U/ml/OD600 activity)”.
